According to the supplement of paper PMC10126150:
± gives the standard deviation of the averaged measurements.

Test system: ATP
Experiment: switch fluorescence ratio, 500 uM ATP over buffer (Cy3 cluster intensity, sum of 5 cycles each) (fold (ratio)); higher = stronger signal-on switching upon ATP binding; sequences stand for … in TCGTCGGCAGCGTCAGATGTGTATAAGAGACAGTTTTTTTTTTTTTTTTTTTTTTTTT…TC
Conditions: aptamer strand: ATP DNA aptamer (quencher-CACCTGGGGGAGTATTGCGGAGGAAGG + anchor), 100 nM annealed; ATP concentration: 500 uM
How it was run: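 Exposure to 500 uM ATP lasted 15 min at 22 °C before imaging, and a selection-buffer image was taken beforehand, for Cy3-labelled switching-strand clusters on a modified Illumina MiSeq flow-cell annealed to 100 nM quencher-labelled ATP aptamer. Five buffer/ATP cycles were run with NaOH stripping and re-annealing between them. The fluorescence ratio per cluster is summed target-cycle over summed buffer-cycle Cy3 intensity, averaged per switch-domain sequence. Clusters outside 100-1000 RFU were excluded.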

Sequence | switch fluorescence ratio
CAGGGCGACA | 0.9924 ± 0.0012
CAGGGCGCCT | 1.012 ± 0.002
CAGGGCGTAT | 1 ± 0.026
CAGGGCTTGA | 1.03 ± 0.093
CAGGGGCTGT | 0.997 ± 0.038
CAGGGGGAAC | 1.04 ± 0.061
CAGGGGGGAT | 1.04 ± 0.067
CAGGGGGGTC | 1.022 ± 0.0065
CAGGGGGTAG | 1.01 ± 0.027
CAGGGGGTAT | 0.997 ± 0.026
CAGGGTGCCA | 1.003 ± 0.0003
CAGGTAAAAG | 1.01 ± 0.035
CAGGTACATT | 1.02 ± 0.049
CAGGTAGATG | 0.9959 ± 0.0086
CAGGTAGGGT | 1.01 ± 0.052
CAGGTAGGTA | 0.977 ± 0.014
CAGGTAGTCT | 0.997 ± 0.024
CAGGTATATG | 1.01 ± 0.017
CAGGTATGAA | 1 ± 0.02
CAGGTCGACT | 0.972 ± 0.03
CAGGTGGTTG | 1.01 ± 0.035
CAGGTGTATG | 1.273 ± 0.0042
CAGGTGTGGG | 1.2 ± 0.1
CAGGTTCACC | 1.03 ± 0.012
CAGGTTGTTC | 1.005 ± 0.0011

Sequence | switch fluorescence ratio
CAGGTTTATA | 0.993 ± 0.022
CAGGTTTGTT | 1.12 ± 0.17
CAGTAAAGGG | 0.9703 ± 0.0059
CAGTAGAGG | 0.979 ± 0.019
CAGTAGATGG | 0.985 ± 0.024
CAGTAGGCAA | 2 ± 0.15
CAGTAGGCGC | 1.01 ± 0.011
CAGTAGGGAG | 0.987 ± 0.022
CAGTAGGGGG | 0.977 ± 0.068
CAGTAGTAGT | 1.02 ± 0.0097
CAGTAGTCGC | 1.01 ± 0.03
CAGTATAAAG | 0.9738 ± 0.0068
CAGTATCTGA | 1 ± 0.0047
CAGTCATGCC | 0.971 ± 0.058
CAGTCGGAGA | 1.02 ± 0.037
CAGTCTGCTC | 1.05 ± 0.03
CAGTCTGCTG | 1.0037 ± 0.00071
CAGTCTGGTA | 0.9966 ± 0.0042
CAGTGACTTT | 1.022 ± 0.0014
CAGTGCATC | 0.972 ± 0.053
CAGTGCGTTT | 1.01 ± 0.013
CAGTGGATAC | 1.2218 ± 0.00027
CAGTGGGAAA | 1.01 ± 0.029
CAGTGGTGGG | 1.01 ± 0.04
CAGTGTAGGG | 1.017 ± 0.01

Sequence | switch fluorescence ratio
CAGTGTGCAG | 0.9602 ± 0.0028
CAGTGTTAGG | 1 ± 0.034
CAGTTAAGTA | 0.973 ± 0.028
CAGTTAGAAA | 0.9952 ± 0.0075
CAGTTCCCGG | 1.02 ± 0.063
CAGTTCGTGT | 1.02 ± 0.022
CAGTTGAACT | 1.0209 ± 0.00023
CAGTTGACTC | 1 ± 0.072
CAGTTGAGAA | 1.02 ± 0.011
CAGTTGGACA | 0.967 ± 0.031
CAGTTGGAGC | 0.981 ± 0.06
CAGTTGGGAG | 1.01 ± 0.029
CAGTTTAAGT | 0.993 ± 0.01
CAGTTTTAGT | 1.01 ± 0.032
CAGTTTTTGG | 0.992 ± 0.013
CATAAAACGG | 1.0263 ± 8.3e-05
CATAAAGAGT | 0.996 ± 0.01
CATAAATGTT | 1.02 ± 0.016
CATAACGTAC | 1.97 ± 0.21
CATAAGATCC | 0.994 ± 0.025
CATAAGTTAT | 1.02 ± 0.02
CATAATGGTG | 1.02 ± 0.013
CATACGTAGT | 1.01 ± 0.034
CATACTTTTT | 1.02 ± 0.018
CATAGAGTTG | 1.03 ± 0.084

Sequence | switch fluorescence ratio
CATAGCCGGT | 1.012 ± 0.0031
CATAGCGATA | 3.48 ± 0.28
CATAGGCATT | 1.03 ± 0.016
CATAGGCCGT | 1.03 ± 0.047
CATAGGGCAG | 1.03 ± 0.012
CATAGGGGCG | 0.984 ± 0.023
CATAGTTGCG | 1.02 ± 0.04
CATAGTTGTT | 1.025 ± 0.0018
CATAGTTTTT | 1.02 ± 0.025
CATATACGAG | 1.11 ± 0.015
CATATCATAC | 1.079 ± 0.0078
CATATCTAAG | 1.002 ± 0.0019
CATATCTAGC | 0.997 ± 0.034
CATATGATTT | 0.993 ± 0.019
CATATGGGCG | 1.03 ± 0.064
CATATTATGT | 1.02 ± 0.011
CATCATTATA | 0.9866 ± 0.0079
CATCCTTTTA | 1.054 ± 0.0037
CATCGATGGT | 1.004 ± 0.0026
CATCGATGTT | 1.025 ± 0.0064
CATCGGCCGC | 1.0223 ± 0.00032
CATCGGCGAT | 1.56 ± 0.038
CATCGGGTAG | 0.996 ± 0.02
CATCGTAATT | 1.07 ± 0.042
CATCGTGACT | 0.994 ± 0.028

Sequence | switch fluorescence ratio
CATCGTGCTG | 0.978 ± 0.052
CATCGTGGTA | 1.04 ± 0.11
CATCTATTTT | 1 ± 0.035
CATCTCGTTT | 1.02 ± 0.042
CATCTGGGCA | 1.03 ± 0.013
CATCTGGTGC | 1.63 ± 0.19
CATCTTCGCT | 1.0246 ± 7.4e-05
CATCTTGAAA | 1.028 ± 0.0097
CATGAAGGTA | 0.9566 ± 0.0087
CATGAATGGG | 1.01 ± 0.032
CATGAATTTT | 0.982 ± 0.047
CATGACGGTT | 0.978 ± 0.046
CATGAGGGGG | 1.01 ± 0.059
CATGAGTTGG | 0.966 ± 0.041
CATGATACGG | 1.03 ± 0.011
CATGATGCTG | 1.01 ± 0.033
CATGATGGAG | 0.999 ± 0.032
CATGCGCTGG | 1.17 ± 0.13
CATGCTGCGG | 0.999 ± 0.026
CATGCTGGGC | 1.0235 ± 0.00067
CATGCTGTA | 0.981 ± 0.025
CATGGCCAGG | 1.06 ± 0.079
CATGGCGAAG | 1 ± 0.034
CATGGCGGAG | 1.03 ± 0.023
CATGGGATGG | 1.01 ± 0.0074

Sequence | switch fluorescence ratio
CATGGGGAAG | 1.02 ± 0.011
CATGGGGCGC | 1.012 ± 0.0071
CATGGGTTCG | 1 ± 0.0066
CATGGGTTTG | 0.9923 ± 0.0031
CATGGTTGGG | 0.984 ± 0.037
CATGGTTTTG | 1 ± 0.023
CATGTAATTG | 1.02 ± 0.015
CATGTAGTA | 0.987 ± 0.028
CATGTATGGG | 0.9833 ± 0.0095
CATGTCTGCT | 0.9777 ± 0.0032
CATGTGCGAG | 1.01 ± 0.021
CATGTGGGGG | 0.985 ± 0.027
CATGTGTGGG | 1.01 ± 0.029
CATGTTGGCT | 1.012 ± 0.0039
CATGTTGGTT | 0.992 ± 0.032
CATTAAGGTT | 0.996 ± 0.01
CATTAATCAT | 0.995 ± 0.048
CATTAATGTA | 0.9977 ± 0.0033
CATTAGAGAC | 1.03 ± 0.012
CATTAGGCAA | 1.696 ± 0.0032
CATTAGGCTG | 1.02 ± 0.015
CATTAGGTGT | 1.16 ± 0.037
CATTATCACG | 1.075 ± 0.01
CATTATGGGA | 1.009 ± 0.0063
CATTCCCTGA | 0.981 ± 0.011

Sequence | switch fluorescence ratio
CATTCGGGGG | 0.997 ± 0.016
CATTCGTCGC | 1.12 ± 0.026
CATTCTGTGT | 1.019 ± 0.0023
CATTGAAAGA | 1.01 ± 0.038
CATTGAAGTG | 0.986 ± 0.053
CATTGAATAT | 0.996 ± 0.043
CATTGAATCT | 1.02 ± 0.02
CATTGACCTT | 1.23 ± 0.067
CATTGCAGTG | 1.03 ± 0.02
CATTGCTTTT | 0.991 ± 0.024
CATTGGACCT | 1.29 ± 0.089
CATTGGAGCA | 1.027 ± 0.0086
CATTGGGGAG | 1.01 ± 0.026
CATTGGGGGA | 0.983 ± 0.014
CATTGGGTTG | 0.9633 ± 0.0019
CATTGGTAAT | 1.018 ± 0.0059
CATTGGTCAT | 0.995 ± 0.045
CATTGTAAAG | 1.02 ± 0.033
CATTGTGGGT | 0.975 ± 0.019
CATTGTTATC | 1.08 ± 0.085
CATTGTTGAC | 0.961 ± 0.02
CATTTAATGG | 0.997 ± 0.028
CATTTATAAT | 1.03 ± 0.02
CATTTATCCT | 1.07 ± 0.024
CATTTATGGG | 1.015 ± 0.0031

Sequence | switch fluorescence ratio
CATTTCAGGT | 1.03 ± 0.069
CATTTCGGGT | 0.992 ± 0.034
CATTTCTGAG | 1.008 ± 0.0061
CATTTCTGTT | 1.004 ± 0.0047
CATTTGAAGA | 1.01 ± 0.019
CATTTGACGG | 0.995 ± 0.024
CATTTGAGGG | 0.988 ± 0.034
CATTTGGAAG | 1.02 ± 0.061
CATTTGGGCT | 1.03 ± 0.039
CATTTTAGGC | 1.04 ± 0.067
CATTTTCTAA | 1.04 ± 0.047
CATTTTGGGA | 0.979 ± 0.03
CATTTTGGTC | 1.002 ± 0.0039
CATTTTGTGC | 0.988 ± 0.052
CATTTTGTTT | 0.998 ± 0.054
CATTTTTGGG | 0.98798 ± 0.00089
CATTTTTTTT | 0.995 ± 0.02
CCAAAAGGTT | 1.01 ± 0.017
CCAAAATTGG | 1.018 ± 0.0052
CCAAAGAATT | 1.03 ± 0.059
CCAAAGATAT | 1.09 ± 0.03
CCAAAGCCTC | 2.69 ± 0.21
CCAAAGGGCC | 1.01 ± 0.071
CCAAAGGGGT | 1.06 ± 0.046
CCAAAGTACG | 1.25 ± 0.018
